Results: the supplement of paper PMC9112550, “Optimization of the antimicrobial peptide Bac7 by deep mutational scanning” (BMC Biology, 2022)

Tested on: Escherichia coli TOP10
Assay: shrunken log2 fold change of peptide-encoding DNA abundance (4.5 h post-induction vs induction); higher = less antimicrobial activity (less host growth inhibition)
Settings: time post-induction: 4.5 h; library: site-saturation at positions 5, 18, 19, 20
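Further: peptides expressed intracellularly from a pBAD plasmid library in pooled LB shake-flask culture, induced with 0.3% L-arabinose, DNA abundance read by NGS, three biological replicates, DESeq2 with apeglm shrinkage.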

| Sequence | shrunken log2 fold change |
| --- | --- |
| RRIRFRPPRLPRPRPRPEAHPRP | 0.171 |
| RRIRWRPPRLPRPRPRPHNPPRP | -0.115 |
| RRIRGRPPRLPRPRPRPWFRPRP | -0.0346 |
| RRIRSRPPRLPRPRPRPMAKPRP | 0.206 |
| RRIRKRPPRLPRPRPRPSWDPRP | -0.164 |
| RRIRYRPPRLPRPRPRPLKGPRP | -0.00142 |
| RRIRTRPPRLPRPRPRPLWSPRP | 0.0357 |
| RRIRWRPPRLPRPRPRPRIMPRP | 0.12 |
| RRIRDRPPRLPRPRPRPKPPPRP | 0.471 |
| RRIRERPPRLPRPRPRPTIFPRP | -0.0972 |
| RRIRPRPPRLPRPRPRPTQHPRP | 0.262 |
| RRIRLRPPRLPRPRPRPCFDPRP | -0.293 |
| RRIRSRPPRLPRPRPRPRPWPRP | 0.324 |
| RRIRERPPRLPRPRPRPLFHPRP | -0.367 |
| RRIRYRPPRLPRPRPRPDSLPRP | -0.142 |
| RRIRPRPPRLPRPRPRPCHDPRP | -0.097 |
| RRIRTRPPRLPRPRPRPGHIPRP | -0.289 |
| RRIRKRPPRLPRPRPRPMETPRP | -0.0146 |
| RRIRKRPPRLPRPRPRPGMFPRP | -0.126 |
| RRIRRRPPRLPRPRPRPSHIPRP | -0.0708 |
| RRIRDRPPRLPRPRPRPECLPRP | 0.0572 |
| RRIRDRPPRLPRPRPRPDDIPRP | -0.00277 |
| RRIRYRPPRLPRPRPRPSRKPRP | 0.0647 |

| Sequence | shrunken log2 fold change |
| --- | --- |
| RRIRYRPPRLPRPRPRPFHSPRP | -0.0599 |
| RRIRNRPPRLPRPRPRPRHCPRP | 0.00979 |
| RRIRPRPPRLPRPRPRPRDAPRP | 0.635 |
| RRIRRRPPRLPRPRPRPMADPRP | 0.357 |
| RRIRNRPPRLPRPRPRPKLHPRP | -0.0882 |
| RRIRNRPPRLPRPRPRPNKPPRP | -0.122 |
| RRIRMRPPRLPRPRPRPVTCPRP | 0.0862 |
| RRIRFRPPRLPRPRPRPCIYPRP | -0.191 |
| RRIRQRPPRLPRPRPRPFERPRP | 0.0412 |
| RRIRLRPPRLPRPRPRPDRWPRP | -0.0824 |
| RRIRSRPPRLPRPRPRPSKVPRP | -0.575 |
| RRIRWRPPRLPRPRPRPKAWPRP | 0.743 |
| RRIRARPPRLPRPRPRPDCDPRP | 0.214 |
| RRIRDRPPRLPRPRPRPFMIPRP | 0.0898 |
| RRIRSRPPRLPRPRPRPQRMPRP | -0.133 |
| RRIRERPPRLPRPRPRPTYAPRP | -0.0017 |
| RRIRHRPPRLPRPRPRPTLSPRP | -0.17 |
| RRIRTRPPRLPRPRPRPRCWPRP | 0.386 |
| RRIRPRPPRLPRPRPRPFQHPRP | -0.00804 |
| RRIRLRPPRLPRPRPRPDCGPRP | 0.0932 |
| RRIRYRPPRLPRPRPRPYWEPRP | -0.0328 |
| RRIRQRPPRLPRPRPRPRKEPRP | -0.0194 |
| RRIRERPPRLPRPRPRPTRCPRP | -0.0341 |

| Sequence | shrunken log2 fold change |
| --- | --- |
| RRIRMRPPRLPRPRPRPPTNPRP | 0.949 |
| RRIRARPPRLPRPRPRPDRWPRP | 0.685 |
| RRIRPRPPRLPRPRPRPWDQPRP | -0.0786 |
| RRIRPRPPRLPRPRPRPCCQPRP | -0.516 |
| RRIRSRPPRLPRPRPRPYIWPRP | -0.108 |
| RRIRTRPPRLPRPRPRPGGAPRP | 0.38 |
| RRIRVRPPRLPRPRPRPASKPRP | -0.0732 |
| RRIRHRPPRLPRPRPRPARYPRP | 0.0518 |
| RRIRCRPPRLPRPRPRPMKGPRP | 0.0113 |
| RRIRWRPPRLPRPRPRPQVDPRP | 1.5 |
| RRIRCRPPRLPRPRPRPAVGPRP | 0.155 |
| RRIRTRPPRLPRPRPRPTAFPRP | 0.13 |
| RRIRYRPPRLPRPRPRPWFEPRP | -0.2 |
| RRIRMRPPRLPRPRPRPGFGPRP | 0.904 |
| RRIRERPPRLPRPRPRPNLTPRP | -0.171 |
| RRIRIRPPRLPRPRPRPYVAPRP | -0.674 |
| RRIRSRPPRLPRPRPRPIAHPRP | -0.0401 |
| RRIRMRPPRLPRPRPRPQKAPRP | 0.0203 |
| RRIRCRPPRLPRPRPRPKADPRP | -0.052 |
| RRIRWRPPRLPRPRPRPYMWPRP | 0.00889 |
| RRIRYRPPRLPRPRPRPYWSPRP | -0.0274 |
| RRIRNRPPRLPRPRPRPSNRPRP | -0.138 |
| RRIRKRPPRLPRPRPRPIDRPRP | -0.0769 |

| Sequence | shrunken log2 fold change |
| --- | --- |
| RRIRTRPPRLPRPRPRPPMSPRP | -0.0702 |
| RRIRQRPPRLPRPRPRPKDCPRP | -0.00225 |
| RRIRNRPPRLPRPRPRPRLKPRP | -0.00493 |
| RRIRFRPPRLPRPRPRPWDEPRP | -0.264 |
| RRIRWRPPRLPRPRPRPKKEPRP | -0.224 |
| RRIRIRPPRLPRPRPRPALCPRP | 0.0482 |
| RRIRQRPPRLPRPRPRPQWDPRP | 0.0263 |
| RRIRPRPPRLPRPRPRPNWAPRP | 0.176 |
| RRIRHRPPRLPRPRPRPLSKPRP | -0.746 |
| RRIRGRPPRLPRPRPRPFEMPRP | 0.396 |
| RRIRSRPPRLPRPRPRPPNPPRP | 0.273 |
| RRIRFRPPRLPRPRPRPATFPRP | -0.207 |
| RRIRKRPPRLPRPRPRPIFHPRP | 0.381 |
| RRIRKRPPRLPRPRPRPHEKPRP | 1.1 |
| RRIRSRPPRLPRPRPRPEPSPRP | 0.859 |
| RRIRVRPPRLPRPRPRPKNKPRP | -0.169 |
| RRIRIRPPRLPRPRPRPYKWPRP | -0.424 |
| RRIRDRPPRLPRPRPRPTQIPRP | 0.114 |
| RRIRPRPPRLPRPRPRPNWFPRP | 0.283 |
| RRIRLRPPRLPRPRPRPPEEPRP | 0.0505 |
| RRIRDRPPRLPRPRPRPWCYPRP | 0.155 |
| RRIRWRPPRLPRPRPRPSYEPRP | 0.086 |
